In PMC10397247:

Experiments:
4H348-bA = molecular target: T1, 4H348-bA; test: two-hybrid library CCNG1;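 further: natural log of median RNA to DNA barcode read ratio; higher means stronger binding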
T1 chain: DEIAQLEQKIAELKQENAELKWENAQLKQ

4H477-bA = molecular target: T2, 4H477-bA; test: two-hybrid library CCNG1;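 further: natural log of median RNA to DNA barcode read ratio; higher means stronger binding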
T2 chain: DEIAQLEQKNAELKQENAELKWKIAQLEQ

4H2438-bA = molecular target: T3, 4H2438-bA; test: two-hybrid library CCNG1;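 further: natural log of median RNA to DNA barcode read ratio; higher means stronger binding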
T3 chain: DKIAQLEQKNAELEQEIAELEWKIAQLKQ

4H40-bA = molecular target: T4, 4H40-bA; test: two-hybrid library CCNG1;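 further: natural log of median RNA to DNA barcode read ratio; higher means stronger binding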
T4 chain: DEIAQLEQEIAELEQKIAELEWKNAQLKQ

4H2915-bA = molecular target: T5, 4H2915-bA; test: two-hybrid library CCNG1
T5 chain: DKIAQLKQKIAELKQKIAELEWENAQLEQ

4H319-bA = molecular target: T6, 4H319-bA; test: two-hybrid library CCNG1
T6 chain: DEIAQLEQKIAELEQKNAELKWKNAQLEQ

4H3277-bA = molecular target: T7, 4H3277-bA; test: two-hybrid library CCNG1
T7 chain: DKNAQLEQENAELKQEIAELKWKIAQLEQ

4H741-bA = molecular target: T8, 4H741-bA; test: two-hybrid library CCNG1
T8 chain: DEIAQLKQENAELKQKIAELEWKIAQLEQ

4H2588-bA = molecular target: T9, 4H2588-bA; test: two-hybrid library CCNG1
T9 chain: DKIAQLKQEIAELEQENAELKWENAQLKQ

4H2717-bA = molecular target: T10, 4H2717-bA; test: two-hybrid library CCNG1
T10 chain: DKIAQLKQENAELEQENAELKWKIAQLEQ

4H2503-bA = molecular target: T11, 4H2503-bA; test: two-hybrid library CCNG1
T11 chain: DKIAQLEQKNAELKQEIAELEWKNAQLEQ

4H492-bA = molecular target: T12, 4H492-bA; test: two-hybrid library CCNG1
T12 chain: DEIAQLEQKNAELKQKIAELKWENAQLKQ

4H2692-bA = molecular target: T13, 4H2692-bA; test: two-hybrid library CCNG1
T13 chain: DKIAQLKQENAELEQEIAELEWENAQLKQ

4H2223-bA = molecular target: T14, 4H2223-bA; test: two-hybrid library CCNG1
T14 chain: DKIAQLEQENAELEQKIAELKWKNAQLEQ

4H2839-bA = molecular target: T15, 4H2839-bA; test: two-hybrid library CCNG1
T15 chain: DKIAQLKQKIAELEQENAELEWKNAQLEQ

4H2473-bA = molecular target: T16, 4H2473-bA; test: two-hybrid library CCNG1
T16 chain: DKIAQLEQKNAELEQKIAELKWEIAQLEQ

4H3057-bA = molecular target: T17, 4H3057-bA; test: two-hybrid library CCNG1
T17 chain: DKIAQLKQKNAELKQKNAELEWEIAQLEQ

4H2600-AA = molecular target: T18, 4H2600-AA; test: two-hybrid library CCmax; details: mean of both orientations
T18 chain: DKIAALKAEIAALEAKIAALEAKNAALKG

4H656-AA = molecular target: T19, 4H656-AA; test: two-hybrid library CCmax
T19 chain: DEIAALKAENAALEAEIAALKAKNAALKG

4H3782-AA = molecular target: T20, 4H3782-AA; test: two-hybrid library CCmax; details: mean of both orientations
T20 chain: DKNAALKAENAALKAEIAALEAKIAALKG

4H2721-AA = molecular target: T21, 4H2721-AA; test: two-hybrid library CCmax; details: mean of both orientations
T21 chain: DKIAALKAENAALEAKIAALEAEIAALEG

4H486-AA = molecular target: T22, 4H486-AA; test: two-hybrid library CCmax; details: mean of both orientations
T22 chain: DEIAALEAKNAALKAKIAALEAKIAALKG

4H535-AA = molecular target: T23, 4H535-AA; test: two-hybrid library CCmax; details: mean of both orientations
T23 chain: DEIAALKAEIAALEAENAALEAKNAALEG

4H_GCN4 = test: two-hybrid library CCmax
4H3020-AA = molecular target: T24, 4H3020-AA; test: two-hybrid library CCmax; details: mean of both orientations
T24 chain: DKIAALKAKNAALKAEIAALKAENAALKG

4H_APH = molecular target: T25, 4H_APH; test: two-hybrid library CCmax; details: mean of both orientations
T25 chain: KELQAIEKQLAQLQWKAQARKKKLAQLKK

GCN2_T = test: two-hybrid library CCmax
4H3365-AA = molecular target: T26, 4H3365-AA; test: two-hybrid library CCmax; details: mean of both orientations
T26 chain: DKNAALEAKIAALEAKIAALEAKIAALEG

4H3651-AA = molecular target: T27, 4H3651-AA; test: two-hybrid library CCmax; details: mean of both orientations
T27 chain: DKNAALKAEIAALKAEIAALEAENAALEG

4H58-AA = molecular target: T28, 4H58-AA; test: two-hybrid library CCmax; details: mean of both orientations
T28 chain: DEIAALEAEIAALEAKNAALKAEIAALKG

4H1802-AA = molecular target: T29, 4H1802-AA; test: two-hybrid library CCmax
T29 chain: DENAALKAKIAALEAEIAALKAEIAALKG

4H3705-AA = molecular target: T30, 4H3705-AA; test: two-hybrid library CCmax; details: mean of both orientations
T30 chain: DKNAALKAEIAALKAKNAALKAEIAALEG

4H2898-AA = molecular target: T31, 4H2898-AA; test: two-hybrid library CCmax; details: mean of both orientations
T31 chain: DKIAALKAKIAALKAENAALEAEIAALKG

4H2750-AA = molecular target: T32, 4H2750-AA; test: two-hybrid library CCmax; details: mean of both orientations
T32 chain: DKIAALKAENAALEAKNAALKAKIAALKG

4H_BCR = molecular target: T33, 4H_BCR; test: two-hybrid library CCmax; details: mean of both orientations
T33 chain: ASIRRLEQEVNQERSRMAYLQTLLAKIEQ

4H355-AA = molecular target: T34, 4H355-AA; test: two-hybrid library CCmax; details: mean of both orientations
T34 chain: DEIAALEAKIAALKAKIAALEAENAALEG

4H895-AA = molecular target: T35, 4H895-AA; test: two-hybrid library CCmax; details: mean of both orientations
T35 chain: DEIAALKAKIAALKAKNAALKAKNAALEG

4H465-AA = molecular target: T36, 4H465-AA; test: two-hybrid library CCmax; details: mean of both orientations
T36 chain: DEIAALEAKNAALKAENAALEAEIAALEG

P1A-bS = molecular target: T37, P1A-bS; test: two-hybrid library CCNG1
T37 chain: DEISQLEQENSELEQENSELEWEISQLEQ

P6A-bS = molecular target: T38, P6A-bS; test: two-hybrid library CCNG1
T38 chain: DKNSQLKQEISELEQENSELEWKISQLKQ

P5A-bS = molecular target: T39, P5A-bS; test: two-hybrid library CCNG1
T39 chain: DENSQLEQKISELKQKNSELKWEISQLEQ

P8A-bS = molecular target: T40, P8A-bS; test: two-hybrid library CCNG1
T40 chain: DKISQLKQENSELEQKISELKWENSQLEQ

P4A-bS = molecular target: T41, P4A-bS; test: two-hybrid library CCNG1
T41 chain: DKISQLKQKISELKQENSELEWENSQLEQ

P7A-bS = molecular target: T42, P7A-bS; test: two-hybrid library CCNG1
T42 chain: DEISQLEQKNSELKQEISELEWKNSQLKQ

P3A-bS = molecular target: T43, P3A-bS; test: two-hybrid library CCNG1
T43 chain: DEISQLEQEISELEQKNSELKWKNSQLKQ

P9A-bS = molecular target: T44, P9A-bS; test: two-hybrid library CCNG1
T44 chain: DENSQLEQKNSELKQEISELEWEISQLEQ

P2A-bS = molecular target: T45, P2A-bS; test: two-hybrid library CCNG1
T45 chain: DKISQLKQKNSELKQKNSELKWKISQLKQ

4H_GCN4, sequence (chain, as listed by the source): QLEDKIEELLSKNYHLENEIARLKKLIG

B1: 4H2223-bA (peptide)
chain: DKIAQLEQENAELEQKIAELKWKNAQLEQ
interaction score (4H348-bA): -1.22 | interaction score (4H477-bA): -1.47 | interaction score (4H2438-bA): 0.457 | interaction score (4H40-bA): -1.46 | interaction score (4H2915-bA): 0.32 | interaction score (4H319-bA): -0.61 | interaction score (4H3277-bA): -0.571 | interaction score (4H741-bA): 0.169 | interaction score (4H2588-bA): -0.336 | interaction score (4H2717-bA): -0.279 | interaction score (4H2503-bA): 1.47 | interaction score (4H492-bA): 1.49 | interaction score (4H2692-bA): -0.196 | interaction score (4H2223-bA): 0.291 | interaction score (4H2839-bA): -0.368 | interaction score (4H2473-bA): -0.247 | interaction score (4H3057-bA): 0.223

B2: 4H1802-AA (peptide)
chain: DENAALKAKIAALEAEIAALKAEIAALKG
interaction score (4H2600-AA): -0.95 | interaction score (4H656-AA): -2.89 | interaction score (4H3782-AA): -1.38 | interaction score (4H2721-AA): -1.29 | interaction score (4H486-AA): -1.28 | interaction score (4H535-AA): -1.73 | interaction score (4H_GCN4): -1.26 | interaction score (4H3020-AA): -1.81 | interaction score (4H_APH): -1.86 | interaction score (GCN2_T): -1.36 | interaction score (4H3365-AA): -1.3 | interaction score (4H3651-AA): -1.48 | interaction score (4H58-AA): -1.15 | interaction score (4H1802-AA): 1.63 | interaction score (4H3705-AA): -1.42 | interaction score (4H2898-AA): -1.81 | interaction score (4H2750-AA): -1.63 | interaction score (4H_BCR): -1.68 | interaction score (4H355-AA): -0.981 | interaction score (4H895-AA): -1.85 | interaction score (4H465-AA): -1.48

B3: P1A-bS (peptide)
chain: DEISQLEQENSELEQENSELEWEISQLEQ
interaction score (P1A-bS): -0.982 | interaction score (P6A-bS): 0.0466 | interaction score (P5A-bS): -0.939 | interaction score (P8A-bS): -0.899 | interaction score (P4A-bS): -0.182 | interaction score (P7A-bS): -1.96 | interaction score (P3A-bS): -0.598 | interaction score (P9A-bS): -1.08 | interaction score (P2A-bS): 1.9
